According to patent US20060031961A1, “Aldehyde reductase” (priority 2004, published 2006):
Where “and” joins values, the source holds several entries; their conditions need not be identical. Identical values can stand only once.

Tested on: aldehyde reductase
Assay: Aldehyde reductase activity assay of expressed, purified proteins (oxidation of NADPH, change in A340)
Assay type: biochemical, Soybean (Glycine max L.)
Procedure: The activity assay measured oxidation of NADPH on a UV500 UV-Visible double-beam Spectrometer (Unicam) by monitoring the change in A340. The assay was performed at room temperature (approximately 23° C.) by adding all of the following reagents into a 1-mL 1-cm quartz cuvette: 500 μL of 200 mM HEPES-KOH pH 7.0, 200 μL of ddH2O, 100 μL of 1 mM NADPH, 25-50 μL aldehyde reductase extract in a 100 μL total volume of 100 mM HEPES-KOH pH 7.0, 10% glycerol buffer. After these samples were mixed and blanked and were incubated for three minutes and a pre-substrate rate was calculated, the assay was started by addition of the substrate to the sample cuvette (solvent was added to the reference cuvette). Several different substrates were tested with each enzyme preparation. These substrates included the following: 100 μL of 100 mM glyceraldehyde, 10 μL of 100 mM glyceraldehyde, or 100 μL of 0.5% […] hexanal in v/v ethanol, or 100 μL of a carbonyl compounds mixture (ULTRA Scientific, North Kingston, R.I.; formaldehyde, acetaldehyde, propanal, butantal, pentanal, hexanal, heptanal, octanal, nonanal, decanal, cyclohexanone, and crotonaldehdye (in methanol)). The carbonyl compounds mixture contains approximately 16 μmole total aldehyde per assay. Except for the inactivity seen in one aldehyde reductase extract with hexanal as the substrate, both of the aldehyde reductase enzymes were active with each of the different substrates tested (see Table 6). As a control, an extract of E. coli proteins without the expressed aldehyde reductase enzymes was prepared and assayed the same way. […] A Bradford assay was performed to determine protein concentrations in the extracts, and the enzymatic rates were calculated. Table 6 presents the activity (in μmol of NADPH oxidized and were NADPH specific (i.e., no activity was observed when NADH was used as the reductant)/min^−1/mg protein^−1) obtained for the purified protein extracts from the plasmids and the source of the DNA. Enzyme activity was calculated as follows: (ΔA340/min; after correction for pre-substrate addition rates)/(6.2×mg enzyme/mL reaction mixture).

[1] = substrate 1 mM glyceraldehyde, NADPH
[2] = substrate 10 mM glyceraldehyde, 100 μL of 1 mM NADH substituted for NADPH
[3] = substrate 10 mM glyceraldehyde, 100 μL of 10 mM ZnCl2 substituted for 100 μL ddH2O
[4] = substrate 10 mM glyceraldehyde, NADPH, room temperature, pH 7.0
[5] = substrate 100 μL 0.5% hexanal, NADPH
[6] = substrate 100 μL aldehyde mixture (carbonyl compounds mixture), NADPH

Row | Activity [1] | Activity [2] | Activity [3] | Activity [5] | Activity [6] | Molecule | Activity [4]
1 | 0.58 μmol · min^−1 · mg protein^−1 | 0.00 μmol · min^−1 · mg protein^−1 | 0.45 μmol · min^−1 · mg protein^−1 | 0.26 μmol · min^−1 · mg protein^−1 | 0.55 μmol · min^−1 · mg protein^−1 | sr1.pk0003.c5: soybean aldehyde reductase encoded by clone sr1.pk0003.c5:fis, expressed in E. coli and purified (protein, Glycine max, soybean aldehyde reductase encoded by clone sr1.pk0003.c5:fis, expressed in E. coli and purified) MAKLIKFFELNTGAKIPSVGLGTWQAEPGVVAKAVTTAILVGYRHIDCAQAYNNQAEIGSALKKLFDDGVVKREDLWITSKLWCSDHASEDVPKALDKTLQDLQLDYLDLYLIHWPVRMKSGSVGFKKEYLDQPDIPSTWKAMEALYDSGKARAIGVSNFSSKKLQDLMNIARVPPAVNQVELHPGWQQPKLHAFCESKGVHLSGYSPLGSPGVLKSDILKNPVVIEIAEKLGKTPAQVALRWGLQTGHSVLPKSTNESRIKGNFDVFDWSIPEEVMDKFSEIKQDRLIKGTFFVDETYGAFKTVEELWDGEL | 1.65 μmol · min^−1 · mg protein^−1 and 1.90 μmol · min^−1 · mg protein^−1 and 2.24 μmol · min^−1 · mg protein^−1
2 | 0.14 μmol · min^−1 · mg protein^−1 | 0.00 μmol · min^−1 · mg protein^−1 | 0.28 μmol · min^−1 · mg protein^−1 | 0.00 μmol · min^−1 · mg protein^−1 | 0.58 μmol · min^−1 · mg protein^−1 | sls2c.pk027.a23:fis: soybean aldehyde reductase encoded by clone sls2c.pk027.a23:fis, expressed in E. coli and purified (protein, Glycine max, soybean aldehyde reductase encoded by clone sls2c.pk027.a23:fis, expressed in E. coli and purified) MAKSIKFFELNTGAKIPSLGLGTWQAEPGVVAEALTTAIQVGYRHIDCASAYKNQAEIGSALKKLFDDGVVKREDLWITSKLWCSDHAPEDVPKALDKTLQELQLDYLDLYLIHWPVRMKSGTFGLNKEYLEQPDIPNTWRAMEALYDSDKARAIGVSNFSSKKLQDLLDIARVVPAVNQVELHPGWQQPKLRAFCESKEIHLSGYSPLGSPAALKSDILKNPVVTEIAERLGKTPAQVALRWGLQAGHSVLPKSTNESRIKGNFDIFDWSIPQDLMTKISEIKQERLVKASFFVHETYGAYRSIEDFWDGEL | 0.70 μmol · min^−1 · mg protein^−1 and 0.60 μmol · min^−1 · mg protein^−1 and 0.74 μmol · min^−1 · mg protein^−1
